{"source": "paper PMC8052261", "molecular_target": "DDX3X helicase core WT (human, UniProt O00571 132-607)", "sequence (O00571 132-607)": "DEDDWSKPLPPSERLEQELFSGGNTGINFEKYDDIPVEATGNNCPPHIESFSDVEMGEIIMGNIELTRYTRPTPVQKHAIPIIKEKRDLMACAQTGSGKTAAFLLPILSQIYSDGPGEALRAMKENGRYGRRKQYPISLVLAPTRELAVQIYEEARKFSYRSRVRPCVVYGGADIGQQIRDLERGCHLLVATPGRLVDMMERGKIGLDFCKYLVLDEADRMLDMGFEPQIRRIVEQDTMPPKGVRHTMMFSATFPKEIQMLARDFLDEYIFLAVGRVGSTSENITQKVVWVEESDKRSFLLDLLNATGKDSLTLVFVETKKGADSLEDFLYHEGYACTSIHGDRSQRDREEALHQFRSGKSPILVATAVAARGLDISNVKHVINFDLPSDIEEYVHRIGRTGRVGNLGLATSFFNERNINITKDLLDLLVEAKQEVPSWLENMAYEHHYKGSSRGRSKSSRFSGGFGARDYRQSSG", "assay": "fluorescence polarization", "data": [{"binder": "UCUCUCUCUCUCUCUCUCUC (ssRNA)", "note": "[(UC)10]", "values": [{"measurement": "binding result", "value": "no binding"}]}]}
